These results are taken from patent publication US20190367615A1 (BEIJING HANMI PHARM, published 2019).

Test [1] deals with T1, Recombinant human PD-1 (Sino Biological Inc., Catalog Number 10377-H08H) (human, UniProt Q15116 25-167).
T1 construct: Bought protein; also called antigen PD-1
The test can be described thus: ELISA, coated recombinant human PD-1 (1 ug/mL), detection with anti-mouse IgG-HRP, OD450nm. As to the method:
(§1) The plate was washed five times with PBST. […] The plate was washed five times with PBST. […] The plate was washed five times with PBST. 100 μL/well of colorimetric substrate TMB was added and incubated at room temperature for 10 minutes. Color development was terminated by adding 100 μL/well of 1 M H₂SO₄. The absorbance at 450 nm was read on a microplate reader.
For orientation: ELISA stands for enzyme-linked immunosorbent assay.

Test [2] deals with T2, Recombinant human PD-1-Fc (human, UniProt Q15116 25-167, limits assumed).
T2 construct: also called recombinant human PD-1-Fc protein; not shown: Fc part
T2 sequence (Q15116 25-167 limits assumed): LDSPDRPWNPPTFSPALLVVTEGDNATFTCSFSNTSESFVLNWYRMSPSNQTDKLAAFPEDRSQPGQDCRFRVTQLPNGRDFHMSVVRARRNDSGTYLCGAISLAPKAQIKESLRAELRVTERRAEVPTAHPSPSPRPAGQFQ
The test is described as follows: competition ELISA, coated human PD-1-Fc, blocked ligand biotin-labeled PD-L1 (final 10 nM), streptavidin-HRP, OD450nm. As to the method: as §1

In test [3] the target is T2, Recombinant human PD-1-Fc. The test can be described thus: competition ELISA, PD-1-Fc coated, competitor biotin-labeled PD-L1. As to the method: Recombinant human PD-1-Fc was coated on a 96-well high-absorbing ELISA plate with a carbonate buffer solution with pH 9.6, the coating concentration was 1 μg/mL, the coating amount was 100 μL per well, and the coating was carried at 4° C. out overnight. The plate was washed five times with PBST and blocked with 300 μL/well of PBST containing 1% BSA and incubated at 25° C. for 1 hour. The plate was washed five times with PBST. The positive control and the anti-human PD-1 antibody sample were added, 50 μL per well. […] The plate was washed five times with PBST. Then, Streptavidin-HRP (BD Pharmingen, Catalog Number 554066) 1:1000 diluted in PBST containing 1% BSA was added, 100 μL per well, incubated at 25° C. for 1 hour. The plate was washed five times with PBST. 100 μL/well of colorimetric substrate TMB was added and incubated at room temperature for 10 minutes. Color development was terminated by adding 100 μL/well of 1 M H₂SO₄. The absorbance at 450 nm was read on a microplate reader.

The target in test [4] is T1, Recombinant human PD-1 (Sino Biological …). The test is described as follows: ELISA, human PD-1 coated. As to the method:
Recombinant human PD-1 (purchased from Sino Biological Inc.) was coated on a 96-well high-absorbing ELISA plate with a carbonate buffer solution with pH 9.6, the coating concentration was 1 μg/mL, the coating amount was 100 μL per well, and the coating was carried out at 4° C. overnight. The plate was washed five times with PBST and blocked with 300 μL/well of PBST containing 1% BSA, and then incubated at 25° C. for 1 hour. The plate was washed five times with PBST. […] The plate was washed five times with PBST. Then, horseradish peroxidase-labeled anti-human IgG antibody (Chemicon, Catalog Number AP309P) 1:2000 diluted in PBST containing 1% BSA was added, 100 μL per well, incubated at 25° C. for 1 hour. The plate was washed five times with PBST. 100 μL/well of colorimetric substrate TMB was added and incubated at room temperature for 10 minutes. Color development was terminated by adding 100 μL/well of 1 M H₂SO₄. The absorbance at 450 nm was read on a microplate reader.

T1 sequence (Q15116 25-167 limits assumed): as above

B1: murine anti-human PD-1 monoclonal antibody secreted by Clone No. 2 (antibody, V domains shown)
VH: EVQLQESGGGLVKPGGSLKLSCAASGFTFSSYGMSWVRQTPEKRLEWVASISGGGRYTYYPDSMKGRFTISRDNAKNNLHLQMSSLRSEDTALYYCVYEYFYTMDYWGQGTSVTVSS
VL: DIVLTQSPATLSVTPGDSVSLSCRANQSISNNLHWYQQRSHESPRLLIRFASQSISGIPSRFSGSGSGTDFTLSINSVETEDFGMYFCQQSDNWPLTFGAGTKLEIK
notes: Hybridoma culture supernatant; Clone No. 2 is the only clone named, so the tie is implicit
On to B1, for which, in test [1], the EC50 was found to be 0.052 nM. Also, the IC50 in test [2] came to 0.838 nM.

B2: BMIV (antibody, human IgG4 S228P, kappa, V domains shown)
VH: EVNLVESGGGLVQPGGSLRLSCAASGFTFSSYGMSWVRQTPGKGLEWVASISGGGRYTYYPDSMKGRFTISRDNSKNNLHLQMSSLRAEDTAVYYCVYEYFYTMDYWGQGTLVTVSS
VL: DVVLTQSPATLSVSPGERVTLSCRANQSISNNLHWYQQKSHQSPRLLIRFASQSISGIPARFSGSGSGTDFTLTISSVETEDFGVYFCQQSDNWPLTFGGGTKLEIKR
Turning to B2, the IC50 in test [3] worked out at 1.3 nM. The EC50 in test [4] came to 0.028 nM.

In general, EC50 refers to the concentration at which the effect is half-maximal. Usually IC50 stands for the concentration that gives 50% inhibition.
